Results published in patent publication US20180155451A1 (published 2018).

T1: FcγRIIb (human, UniProt P31994 43-217)
T1 construct: extracellular domain; also called FcgRIIb; 2b
T1 sequence (looked up): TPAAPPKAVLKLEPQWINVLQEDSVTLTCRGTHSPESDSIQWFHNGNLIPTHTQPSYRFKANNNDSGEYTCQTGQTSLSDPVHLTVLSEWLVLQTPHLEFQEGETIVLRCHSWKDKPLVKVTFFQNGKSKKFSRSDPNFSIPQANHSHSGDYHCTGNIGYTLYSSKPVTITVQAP


Tests used:
[1] = target: T2, FcγRIa (human, UniProt P12314 16-292); assay: SPR (Biacore); He/Con_1a (FcgRIa) divided by He/Con_2b (FcgRIIb)
T2 construct: extracellular domain; also called FcgRI; FcgRIa
Protocol: The heterodimerized antibodies He Abs in which one of the H chains was introduced with an alteration were assayed for their binding activities to each activating FcγR and inhibitory FcγR according to the method described in Example 4. […] The activating FcγRs in FIGS. 26, 27, 28, and 29 are FcγRIa, FcγRIIa (R), FcγRIIa (H), and FcγRIIIa, respectively.
Analysis of interaction between objective antibody and the FcγR was carried out using Biacore T100 (GE Healthcare). HBS-EP+ (GE Healthcare) was used as the running buffer, and the measurement temperature was set to 25° C. Chips produced by immobilizing the antigen peptide by the amine coupling method to a Series S Sencor Chip CM5 (GE Healthcare), or alternatively, chips produced by allowing preliminarily biotinylated antigen peptides to interact with and immobilize onto a Series S Sensor Chip SA (certified) (GE Healthcare) were used. Antibodies of interest were captured onto an antigen peptide-immobilized chip, and allowed to interact to each FcγR diluted with running buffer. To regenerate and repeatedly use the chip, the antibodies captured on the chip were washed off by reacting 10 mM glycine-HCl, pH 1.5.

[2] = target: T1, FcγRIIb; assay: SPR (Biacore), relative to GpH7-A5/GpH7-B3/GpL16-k0 = 100
[3] = target: T2, FcγRIa; assay: as above

T2 sequence (P12314 16-292): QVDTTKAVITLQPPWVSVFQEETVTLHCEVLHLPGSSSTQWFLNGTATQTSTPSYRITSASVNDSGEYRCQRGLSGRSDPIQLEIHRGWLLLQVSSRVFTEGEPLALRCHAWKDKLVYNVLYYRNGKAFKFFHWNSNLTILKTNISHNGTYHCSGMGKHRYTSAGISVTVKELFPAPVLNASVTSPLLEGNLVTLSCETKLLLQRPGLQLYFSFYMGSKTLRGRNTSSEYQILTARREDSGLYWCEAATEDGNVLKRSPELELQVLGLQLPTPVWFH

| Binder | Ia/IIb He_1a/2b [1] | He/Con_2b (IIb binding) [2] | He/Con_1a (Ia binding) [3] |
| --- | --- | --- | --- |
| GpH7-A5/GpH7-B3 variant A327_06M/GpL16-k0 (antibody, human IgG1, kappa, heterodimerized IgG1, one H chain mutated; also called He Ab) heavy 1: not shown heavy 2: not shown light: DIVMTQSPLSLPVTPGEPASISCQASESLVHSNRNTYLHWYLQKPGQSPQLLIYKVSNRFSGVPDRFSGSGSGTDFTLKISRVEAEDVGVYYCSQNTHVPPTFGQGTKVEIERTVAAPSVFIFPPSDEQLKSGTASVVCLLNNFYPREAKVQWKVDNALQSGNSQESVTEQDSKDSTYSLSSTLTLSKADYEKHKVYACEVTHQGLSSPVTKSFNRGEC | 1.74 | 59.5 relative (control = 100) | 103 relative (control = 100) |
| GpH7-A5/GpH7-B3 variant A327_08L/GpL16-k0 (antibody, human IgG1, kappa, heterodimerized IgG1, one H chain mutated; also called He Ab) heavy 1: not shown heavy 2: not shown light: DIVMTQSPLSLPVTPGEPASISCQASESLVHSNRNTYLHWYLQKPGQSPQLLIYKVSNRFSGVPDRFSGSGSGTDFTLKISRVEAEDVGVYYCSQNTHVPPTFGQGTKVEIERTVAAPSVFIFPPSDEQLKSGTASVVCLLNNFYPREAKVQWKVDNALQSGNSQESVTEQDSKDSTYSLSSTLTLSKADYEKHKVYACEVTHQGLSSPVTKSFNRGEC | 1.56 | 63.1 relative (control = 100) | 98.6 relative (control = 100) |
| GpH7-A5/GpH7-B3 variant A327_11K/GpL16-k0 (antibody, human IgG1, kappa, heterodimerized IgG1, one H chain mutated; also called He Ab) heavy 1: not shown heavy 2: not shown light: DIVMTQSPLSLPVTPGEPASISCQASESLVHSNRNTYLHWYLQKPGQSPQLLIYKVSNRFSGVPDRFSGSGSGTDFTLKISRVEAEDVGVYYCSQNTHVPPTFGQGTKVEIERTVAAPSVFIFPPSDEQLKSGTASVVCLLNNFYPREAKVQWKVDNALQSGNSQESVTEQDSKDSTYSLSSTLTLSKADYEKHKVYACEVTHQGLSSPVTKSFNRGEC | 6.87 | 12.5 relative (control = 100) | 86.1 relative (control = 100) |
| GpH7-A5/GpH7-B3 variant A327_13S/GpL16-k0 (antibody, human IgG1, kappa, heterodimerized IgG1, one H chain mutated; also called He Ab) heavy 1: not shown heavy 2: not shown light: DIVMTQSPLSLPVTPGEPASISCQASESLVHSNRNTYLHWYLQKPGQSPQLLIYKVSNRFSGVPDRFSGSGSGTDFTLKISRVEAEDVGVYYCSQNTHVPPTFGQGTKVEIERTVAAPSVFIFPPSDEQLKSGTASVVCLLNNFYPREAKVQWKVDNALQSGNSQESVTEQDSKDSTYSLSSTLTLSKADYEKHKVYACEVTHQGLSSPVTKSFNRGEC | 1.29 | 79.5 relative (control = 100) | 102 relative (control = 100) |
| GpH7-A5/GpH7-B3 variant A327_15Y/GpL16-k0 (antibody, human IgG1, kappa, heterodimerized IgG1, one H chain mutated; also called He Ab) heavy 1: not shown heavy 2: not shown light: DIVMTQSPLSLPVTPGEPASISCQASESLVHSNRNTYLHWYLQKPGQSPQLLIYKVSNRFSGVPDRFSGSGSGTDFTLKISRVEAEDVGVYYCSQNTHVPPTFGQGTKVEIERTVAAPSVFIFPPSDEQLKSGTASVVCLLNNFYPREAKVQWKVDNALQSGNSQESVTEQDSKDSTYSLSSTLTLSKADYEKHKVYACEVTHQGLSSPVTKSFNRGEC | 1.58 | 60.8 relative (control = 100) | 96.3 relative (control = 100) |
| GpH7-A5/GpH7-B3 variant A327_16H/GpL16-k0 (antibody, human IgG1, kappa, heterodimerized IgG1, one H chain mutated; also called He Ab) heavy 1: not shown heavy 2: not shown light: DIVMTQSPLSLPVTPGEPASISCQASESLVHSNRNTYLHWYLQKPGQSPQLLIYKVSNRFSGVPDRFSGSGSGTDFTLKISRVEAEDVGVYYCSQNTHVPPTFGQGTKVEIERTVAAPSVFIFPPSDEQLKSGTASVVCLLNNFYPREAKVQWKVDNALQSGNSQESVTEQDSKDSTYSLSSTLTLSKADYEKHKVYACEVTHQGLSSPVTKSFNRGEC | 1.52 | 63.5 relative (control = 100) | 96.5 relative (control = 100) |
| GpH7-A5/GpH7-B3 variant A327_19Q/GpL16-k0 (antibody, human IgG1, kappa, heterodimerized IgG1, one H chain mutated; also called He Ab) heavy 1: not shown heavy 2: not shown light: DIVMTQSPLSLPVTPGEPASISCQASESLVHSNRNTYLHWYLQKPGQSPQLLIYKVSNRFSGVPDRFSGSGSGTDFTLKISRVEAEDVGVYYCSQNTHVPPTFGQGTKVEIERTVAAPSVFIFPPSDEQLKSGTASVVCLLNNFYPREAKVQWKVDNALQSGNSQESVTEQDSKDSTYSLSSTLTLSKADYEKHKVYACEVTHQGLSSPVTKSFNRGEC | 1.78 | 54.2 relative (control = 100) | 96.2 relative (control = 100) |
| GpH7-A5/GpH7-B3 variant N325_02A/GpL16-k0 (antibody, human IgG1, kappa, heterodimerized IgG1, one H chain mutated; also called He Ab) heavy 1: not shown heavy 2: not shown light: DIVMTQSPLSLPVTPGEPASISCQASESLVHSNRNTYLHWYLQKPGQSPQLLIYKVSNRFSGVPDRFSGSGSGTDFTLKISRVEAEDVGVYYCSQNTHVPPTFGQGTKVEIERTVAAPSVFIFPPSDEQLKSGTASVVCLLNNFYPREAKVQWKVDNALQSGNSQESVTEQDSKDSTYSLSSTLTLSKADYEKHKVYACEVTHQGLSSPVTKSFNRGEC | 1.5 | 64.4 relative (control = 100) | 96.8 relative (control = 100) |
| GpH7-A5/GpH7-B3 variant N325_05P/GpL16-k0 (antibody, human IgG1, kappa, heterodimerized IgG1, one H chain mutated; also called He Ab) heavy 1: not shown heavy 2: not shown light: DIVMTQSPLSLPVTPGEPASISCQASESLVHSNRNTYLHWYLQKPGQSPQLLIYKVSNRFSGVPDRFSGSGSGTDFTLKISRVEAEDVGVYYCSQNTHVPPTFGQGTKVEIERTVAAPSVFIFPPSDEQLKSGTASVVCLLNNFYPREAKVQWKVDNALQSGNSQESVTEQDSKDSTYSLSSTLTLSKADYEKHKVYACEVTHQGLSSPVTKSFNRGEC | 3.42 | 26 relative (control = 100) | 88.8 relative (control = 100) |
| GpH7-A5/GpH7-B3 variant N325_11K/GpL16-k0 (antibody, human IgG1, kappa, heterodimerized IgG1, one H chain mutated; also called He Ab) heavy 1: not shown heavy 2: not shown light: DIVMTQSPLSLPVTPGEPASISCQASESLVHSNRNTYLHWYLQKPGQSPQLLIYKVSNRFSGVPDRFSGSGSGTDFTLKISRVEAEDVGVYYCSQNTHVPPTFGQGTKVEIERTVAAPSVFIFPPSDEQLKSGTASVVCLLNNFYPREAKVQWKVDNALQSGNSQESVTEQDSKDSTYSLSSTLTLSKADYEKHKVYACEVTHQGLSSPVTKSFNRGEC | 7.81 | 10.4 relative (control = 100) | 80.9 relative (control = 100) |
| GpH7-A5/GpH7-B3 variant N325_12R/GpL16-k0 (antibody, human IgG1, kappa, heterodimerized IgG1, one H chain mutated; also called He Ab) heavy 1: not shown heavy 2: not shown light: DIVMTQSPLSLPVTPGEPASISCQASESLVHSNRNTYLHWYLQKPGQSPQLLIYKVSNRFSGVPDRFSGSGSGTDFTLKISRVEAEDVGVYYCSQNTHVPPTFGQGTKVEIERTVAAPSVFIFPPSDEQLKSGTASVVCLLNNFYPREAKVQWKVDNALQSGNSQESVTEQDSKDSTYSLSSTLTLSKADYEKHKVYACEVTHQGLSSPVTKSFNRGEC | 4.41 | 19.1 relative (control = 100) | 84.2 relative (control = 100) |
| GpH7-A5/GpH7-B3 variant N325_16H/GpL16-k0 (antibody, human IgG1, kappa, heterodimerized IgG1, one H chain mutated; also called He Ab) heavy 1: not shown heavy 2: not shown light: DIVMTQSPLSLPVTPGEPASISCQASESLVHSNRNTYLHWYLQKPGQSPQLLIYKVSNRFSGVPDRFSGSGSGTDFTLKISRVEAEDVGVYYCSQNTHVPPTFGQGTKVEIERTVAAPSVFIFPPSDEQLKSGTASVVCLLNNFYPREAKVQWKVDNALQSGNSQESVTEQDSKDSTYSLSSTLTLSKADYEKHKVYACEVTHQGLSSPVTKSFNRGEC | 1.36 | 70.1 relative (control = 100) | 95.1 relative (control = 100) |
| GpH7-A5/GpH7-B3 variant N325_19Q/GpL16-k0 (antibody, human IgG1, kappa, heterodimerized IgG1, one H chain mutated; also called He Ab) heavy 1: not shown heavy 2: not shown light: DIVMTQSPLSLPVTPGEPASISCQASESLVHSNRNTYLHWYLQKPGQSPQLLIYKVSNRFSGVPDRFSGSGSGTDFTLKISRVEAEDVGVYYCSQNTHVPPTFGQGTKVEIERTVAAPSVFIFPPSDEQLKSGTASVVCLLNNFYPREAKVQWKVDNALQSGNSQESVTEQDSKDSTYSLSSTLTLSKADYEKHKVYACEVTHQGLSSPVTKSFNRGEC | 1.43 | 69.1 relative (control = 100) | 99.1 relative (control = 100) |
| GpH7-A5/GpH7-B3 variant S298_09D/GpL16-k0 (antibody, human IgG1, kappa, heterodimerized IgG1, one H chain mutated; also called He Ab) heavy 1: not shown heavy 2: not shown light: DIVMTQSPLSLPVTPGEPASISCQASESLVHSNRNTYLHWYLQKPGQSPQLLIYKVSNRFSGVPDRFSGSGSGTDFTLKISRVEAEDVGVYYCSQNTHVPPTFGQGTKVEIERTVAAPSVFIFPPSDEQLKSGTASVVCLLNNFYPREAKVQWKVDNALQSGNSQESVTEQDSKDSTYSLSSTLTLSKADYEKHKVYACEVTHQGLSSPVTKSFNRGEC | 2.19 | 48.3 relative (control = 100) | 106 relative (control = 100) |
| GpH7-A5/GpH7-B3 variant S298_10E/GpL16-k0 (antibody, human IgG1, kappa, heterodimerized IgG1, one H chain mutated; also called He Ab) heavy 1: not shown heavy 2: not shown light: DIVMTQSPLSLPVTPGEPASISCQASESLVHSNRNTYLHWYLQKPGQSPQLLIYKVSNRFSGVPDRFSGSGSGTDFTLKISRVEAEDVGVYYCSQNTHVPPTFGQGTKVEIERTVAAPSVFIFPPSDEQLKSGTASVVCLLNNFYPREAKVQWKVDNALQSGNSQESVTEQDSKDSTYSLSSTLTLSKADYEKHKVYACEVTHQGLSSPVTKSFNRGEC | 2.28 | 47.6 relative (control = 100) | 108 relative (control = 100) |
| GpH7-A5/GpH7-B3 variant S298_11K/GpL16-k0 (antibody, human IgG1, kappa, heterodimerized IgG1, one H chain mutated; also called He Ab) heavy 1: not shown heavy 2: not shown light: DIVMTQSPLSLPVTPGEPASISCQASESLVHSNRNTYLHWYLQKPGQSPQLLIYKVSNRFSGVPDRFSGSGSGTDFTLKISRVEAEDVGVYYCSQNTHVPPTFGQGTKVEIERTVAAPSVFIFPPSDEQLKSGTASVVCLLNNFYPREAKVQWKVDNALQSGNSQESVTEQDSKDSTYSLSSTLTLSKADYEKHKVYACEVTHQGLSSPVTKSFNRGEC | 1.78 | 61.3 relative (control = 100) | 109 relative (control = 100) |
| GpH7-A5/GpH7-B3 variant S298_12R/GpL16-k0 (antibody, human IgG1, kappa, heterodimerized IgG1, one H chain mutated; also called He Ab) heavy 1: not shown heavy 2: not shown light: DIVMTQSPLSLPVTPGEPASISCQASESLVHSNRNTYLHWYLQKPGQSPQLLIYKVSNRFSGVPDRFSGSGSGTDFTLKISRVEAEDVGVYYCSQNTHVPPTFGQGTKVEIERTVAAPSVFIFPPSDEQLKSGTASVVCLLNNFYPREAKVQWKVDNALQSGNSQESVTEQDSKDSTYSLSSTLTLSKADYEKHKVYACEVTHQGLSSPVTKSFNRGEC | 1.89 | 57.8 relative (control = 100) | 109 relative (control = 100) |
